Columns and labels:
[1] = test system: human basophils; assay: Reactivity against human basophils, flow cytometry; format: binding; details: 10 μg/mL, 4° C., 1 hour; FIG. 9
Experimental: To human peripheral blood collected by adding a heparin sodium injection liquid, the same amount of physiological saline for injection as the human peripheral blood was added and mixed with each other. 15 mL of Ficoll-Paque PREMIUM 1.084 (GE Healthcare) was added to a 50 mL centrifuge tube, 30 mL of the human peripheral blood diluted with physiological saline was overlaid thereon, and centrifugation was performed at room temperature and 1500 rpm for 30 minutes.
After the centrifugation, the mononuclear cell layer was recovered using a pipette and washed twice with an MACS buffer. After the number of cells was counted, basophils were isolated by a negative selection method using Basophil Isolation Kit II, human (Miltenyi Biotec) according to the attached instructions.
After the isolated cells were washed with SM, the isolated cells were seeded in a 96-well plate such that one well has 5×10^4 cells, and centrifuged at 2000 rpm for 2 minutes. […] After the cells were washed, the cells were suspended with SM, and the fluorescent intensity was analyzed by flow cytometry (BD Biosciences, FACS CantoII).

[2] = biological target: T1, mutated human CRTH2 with amino acid substitution (Homo sapiens, UniProt Q9Y5Y4, D171A/I173A/T172A); assay: Epitope analysis using CHO-S cells which express mutated human CRTH2 with amino acid substitution; format: binding; details: mutant D171A, T172A, and I173A; antibody 10 μg/mL; relative to wild-type = 100%
T1 construct: inserting genes encoding various mutants with amino acid substitution obtained by deleting termination codons; expressed in transfected cells; host or cells: CHO-S cells (Lifetechnologies), transient (phmAG1-MNLinker vector)
T1 sequence (Q9Y5Y4 1-395 D171A/T172A/I173A): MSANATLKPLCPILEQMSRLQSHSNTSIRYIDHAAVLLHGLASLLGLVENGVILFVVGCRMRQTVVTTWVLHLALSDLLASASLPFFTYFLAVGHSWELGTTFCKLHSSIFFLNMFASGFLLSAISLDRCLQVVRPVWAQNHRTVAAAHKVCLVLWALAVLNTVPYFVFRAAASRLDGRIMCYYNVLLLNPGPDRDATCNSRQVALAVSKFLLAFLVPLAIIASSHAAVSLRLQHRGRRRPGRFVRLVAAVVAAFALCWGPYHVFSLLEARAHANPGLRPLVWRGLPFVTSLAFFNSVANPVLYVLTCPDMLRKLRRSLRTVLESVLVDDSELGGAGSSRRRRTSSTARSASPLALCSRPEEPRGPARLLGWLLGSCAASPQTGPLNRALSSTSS
Experimental: A mutant with amino acid substitution expression vector obtained by partially substituting amino acid residues in an extracellular region with other amino acid residues among the amino acid sequences of human CRTH2 was prepared. Specifically, mutant with amino acid substitution expression vectors obtained by substitution of S2A; N4A; T6A and L7A; K8A, P9A, and L10A; P12A, L14A, and EISA; Q16E, R19H, and Q21R; H23A, S24A, and N25A; T26A, S27A, and I28A; D171A, T172A, and I173A; S174A, R175A, and L176A; D177A, G178A, and R179A; 1180A and M181A; Y183A, Y184A, and N185A; L187A, L188A, and L189A; N190A; P191A; G192A; P193A; D194A; R195A; D196A, and T198A; N275A, G277A, and L278A; P276A; P279A and L281A; P280A; or V282A, R283A, and R284A in the amino acid sequences represented by SEQ ID NO: 2 were respectively prepared. It should be noted that the above symbols in the amino acid substitution indicate [single letter code of an amino acid residue before substitution] [substitution position counting from the N terminal] [single letter code of the amino acid reside after substitution].
Azami-Green tag was added to the intercellular C terminal region by inserting genes encoding various mutants with amino acid substitution obtained by deleting termination codons to the restriction enzyme sites of BamHI and HindIII using phmAG1-MNLinker (MBL) as expression vectors.
The above-described vectors expressing mutants with amino acid substitution were prepared using 1) a method of entirely synthesizing gene sequences encoding mutants with amino acid substitution and inserting the gene sequences into a vector or 2) a method of performing site-specific mutation from a vector into which DNA which encodes the amino acid sequences of wild-type human CRTH2 represented by SEQ ID NO: 1 was inserted.
CHO-S cells (Lifetechnologies) were used for preparing mutated human CRTH2 with amino acid substitution expressing cell lines. Free style CHO expression medium (Invitrogen) containing 8 mM L-Glutamine (Invitrogen) was used for subculturing cells and the cells were cultured by shaking under the conditions of 37° C. in the presence of 5% CO2.
25 μg of the mutated human CRTH2 with amino acid substitution expression vector prepared in (1) described above was dissolved in 400 μL of Opti-Pro SFM (Invitrogen) and 25 μL of a Freestyle MAX Reagent (Invitrogen) was dissolved in 400 μL of Opti-Pro SFM and each of them were allowed to stand at room temperature for 5 minutes. The two liquids were mixed with each other and allowed to stand at room temperature for 15 minutes. The mixed solution was added to the CHO-S culture solution and the cells were cultured for 24 hours, thereby obtaining cell lines which express mutated human CRTH2 with amino acid substitution.
The CHO-S cells which express mutated human CRTH2 with amino acid substitution established in (2) were washed with SM, seeded in a 96-well plate such that one well has 2×10^5 cells, and centrifuged at 1700 rpm for 2 minutes. After the supernatant was removed, chLym2, LV0HV1, the anti-human CRTH2 antibody hu19A2 v52, hu8B1 v1, ch3C12, or ch31A5 prepared in Example 9, or a commercially available anti-human CRTH2 antibody BM16 (Santa Cruz) prepared to have a concentration of 10 μg/mL using SM was added thereto to cause a reaction at 4° C. for 1 hour.
After the cells were washed, goat anti-Human IgG Alexa 647 (Molecular Probes) diluted with SM was added to wells to which chLym2, LV0HV1, hu19A2 v52, hu8B1 v1, ch3C12, or ch31A5 was added and goat anti-Rat IgG Alexa 647 (Molecular Probes) diluted with SM was added to wells to which BM16 was added at a final concentration of 10 μg/mL to cause a reaction at 4° C. for 1 hour.
After the reaction, the cells were washed and suspended with SM, and the fluorescent intensity was analyzed by flow cytometry (BD Biosciences, FACS CantoII). […]

[3] = test system: Th2 cells; assay: Cytotoxic activity against Th2 cells: cytokine production of PBMC after antibody treatment; format: cell-based, human; details: antibody 10 μg/mL 20 hours, then anti-CD3/anti-CD28 stimulation 3 days
Experimental: The mononuclear cell layer prepared in the same manner as in Example 13 was washed twice with RPMI-1640 (Wako Pure Chemical Industries) to which 1/10 volume FBS (GIBCO Inc.), 200 mM-L-Glutamine Stock Solution (NACALAI TESQUE, Inc.), 10 mM MEM Non-Essential Amino Acids Solution (GIBCO Inc.), 100 mM Sodium Pyruvate (GIBCO Inc.), 1 M HEPES Buffer Solution (GIBCO Inc.), and 1/100 volume Penicillin-Streptomycin, Liquid (GIBCO Inc.) were added [hereinafter, referred to as peripheral blood mononuclear cell (PBMC) culture medium], thereby preparing a 1×10^7 cells/mL cell suspension.
The prepared cell suspension was seeded in a 96-well plate at 100 μL/well, chLym2 antibody, the humanized anti-human CRTH2 antibody LV0HV1 or the isotype control antibody described in Example 8 was added thereto at a final concentration of 10 μg/mL to cause a reaction in a 5% CO2 incubator at 37° C. for 20 hours.
The cells after the reaction were washed 7 times with a PBMC culture medium to remove the test antibodies thoroughly. Thereafter, the cells were suspended with 100 μL of PBMC culture medium and seeded in a plate in which anti-CD3 antibody OKT3 (Abeam plc.) was immobilized at a concentration of 1 μg/mL. Next, an anti-CD28 antibody (BD Biosciences) prepared to have a concentration of 2 μg/mL was added thereto at 100 μL/well to cause a reaction in a 5% CO2 incubator at 37° C. for 3 days.
The supernatant after the reaction was recovered, and cytokine in the supernatant was quantified using Human IFN-γ Flex Set (BD Biosciences), Human IL-5 Flex Set (BD Biosciences), and Human IL-13 Flex Set (BD Biosciences) according to the attached instructions.

reactivity against cells expressing mutated human CRTH2 [2]: additionally lost
B1: chLym2: rat/human chimeric Lym2 antibody, Lym2 variable regions with human IgG1 and κ constant regions (antibody, V domains shown)
VH: EVQLVESGGGLVQPGRSMKLSCAASGFTFSNYYMAWVRQAPKKGLEWVATISYDGSSTYYRDSVKGRFTISRDNAKSTLYLQMDSLRSEDTATYYCARHRGYYYSGAGYFDYWGQGVMVTVSS
VL: DVVLTQTPVSLSVTLGDQASISCRSSQSLEYSDGYTYLEWYLQKPGQSPQVLIYGVSNRFSGVPDRFIGSGSGTDFTLKISRVEPEDLGVYYCFQATHDPLTFGSGTKLEIK
reactivity against human basophils [1]: has reactivity
production of IL-5 (Th2 cytokine) ([3]; FIG. 12(A)): reduced
production of IL-13 (Th2 cytokine) ([3]; FIG. 12(A)): reduced
production of IFN-γ (Th1 cytokine) ([3]; FIG. 12(B)): not changed
